{"source": "patent US20190161517A1", "about": "(ENSOL BIOSCIENCES, published 2019)", "binders": {"B1": {"name": "peptide of Example 1 (DGEFF) (peptide)", "peptide": "DGEFF", "notes": "Synthetic peptide made by AnyGen Co., Ltd"}, "B2": {"name": "peptide of Example 2 (DGEF) (peptide)", "peptide": "DGEF", "notes": "as for B1"}}, "target": "T1, extracellular domain recombinant protein RAGE (11629-H08H, Sino Biological Inc.) (UniProt Q15109 23-342, labeled with RED fluorescent dye NT-647-NHS (sites not given))", "T1 construct": "extracellular domain; Bought protein; also called Receptor for Advanced Glycation End products", "T1 sequence (Q15109 23-342 limits assumed)": "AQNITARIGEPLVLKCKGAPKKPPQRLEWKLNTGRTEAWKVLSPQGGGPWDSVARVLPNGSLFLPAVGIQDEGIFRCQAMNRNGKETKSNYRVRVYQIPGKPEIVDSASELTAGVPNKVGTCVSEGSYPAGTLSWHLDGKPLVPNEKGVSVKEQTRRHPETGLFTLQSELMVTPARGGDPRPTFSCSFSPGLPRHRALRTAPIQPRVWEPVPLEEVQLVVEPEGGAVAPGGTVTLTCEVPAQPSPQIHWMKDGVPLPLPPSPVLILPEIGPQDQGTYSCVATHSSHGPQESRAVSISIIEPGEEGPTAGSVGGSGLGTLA", "experiment": "MST (Microscale Thermophoresis), NT-647-labeled RAGE extracellular domain, peptide titrated 50 uM to 1.52 nM, mean of three runs", "description": "Specifically, the binding capacity of the peptide of Example 1 or 2 to RAGE was measured using MST (Microscale Thermophoresis).\nUsing a kit {Monolith NT™ Protein Labeling Kit RED-NHS (L001, NanoTemper Technologies)}, an extracellular domain recombinant protein RAGE (11629-H08H, Sino Biological Inc.) was bound to a RED fluorescent dye NT-647-NHS and then purified. Thereafter, a RAGE solution in which the concentration of the RED fluorescent dye NT-647-NHS labeled RAGE in an MST buffer (50 mM Tris-HCl pH 7.4, 150 mM NaCl, 10 mM MgCl₂, 0.05% Tween-20) solution was 20 μM was prepared. Also, a peptide solution was prepared in a 16-step dilution series, in which dilution was repeated with the MST buffer until the concentration of the peptide of Example 1 or Example 2 became 1.52 nM starting from 50 μM. Thereafter, the RAGE solution and the peptide solution were mixed in amounts of 100 μl each, injected into a capillary tube and then placed in the order of concentration in a Monolith NT. 115 tray (G009, NanoTemper technologies). The software was operated in accordance with the Monolith NT. 115 operating method. The same procedure was repeated three times, and the mean value of Kd (dissociation constant) was obtained."}
{"binder": "B1", "values": [{"measurement": "Kd", "result": 0.0769, "unit": "µM"}]}
{"binder": "B2", "values": [{"measurement": "Kd", "result": 0.0809, "unit": "µM"}]}
